Results published in patent USRE44389.

Assays:
[1] = target: Fcγ receptors on monocytes (human blood); test: FACS on human monocytes, antibody 10 µg/ml
[2] = target: Fcγ receptors on granulocytes (human blood); test: FACS on human granulocytes, antibody 10 µg/ml
[3] = target: Fcγ receptors on monocytes (human blood); test: FACS on human monocytes, antibody 10 µg/ml; negative control

% monocytes binding antibody [1] [%]	% granulocytes binding antibody [2] [%]	% monocytes binding antibody [3] [%]	Substance
14.5	1.6	–	HuMab 002 Fc variant IgG4v1 (S228P; L235E) (antibody)
–	–	9.4	Human IgG4 (CLB, the Netherlands), negative control (antibody)
